In publication PMC7335187, “Super-assembly of ER-phagy receptor Atg40 induces local ER remodeling at contacts with forming autophagosomal membranes” (Nature Communications, 2020):
Values belong to the substance of their own block, whether it stands above or below them.

Legend:
[1] = biological target: Atg8 (1-116) K26P (S. cerevisiae) (UniProt P38182); assay: ITC; MicroCal iTC200, 25 °C; peptide in the syringe (FAM134B, SEC62, RTN3 0.5 mM; Atg40^234–252 2.0 mM; Atg40^237–252 1.8 mM), Atg8-family protein in the cell at 10 times lower concentration (1.8 mM Atg8 for Atg40^237–252 D243A D247A); 20 mM HEPES pH 6.8, 150 mM NaCl; single-site model; errors are fitting errors
Chain of Atg8 (1-116) K26P (S. cerevisiae) (P38182 1-116 K26P): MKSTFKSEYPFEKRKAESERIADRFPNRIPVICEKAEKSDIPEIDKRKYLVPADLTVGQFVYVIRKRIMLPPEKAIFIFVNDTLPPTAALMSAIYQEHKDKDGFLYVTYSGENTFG

[2] = biological target: LC3B WT (rat LC3B 1-120) (rat) (UniProt Q62625); assay: ITC; peptide in the syringe (0.5 mM) titrated into 200 µl of the Atg8 homologue in the cell at a 10 times lower concentration; MicroCal iTC200, 25 °C, stirring at 1000 rpm; single-site binding model; N fixed to 1.0 when the fitting was not convergent due to weak interaction; errors are fitting errors
[3] = biological target: GABARAP WT (human GABARAP 1-116) (human) (UniProt O95166); assay: as above
Chain of GABARAP WT (human GABARAP 1-116) (human) (O95166 1-116): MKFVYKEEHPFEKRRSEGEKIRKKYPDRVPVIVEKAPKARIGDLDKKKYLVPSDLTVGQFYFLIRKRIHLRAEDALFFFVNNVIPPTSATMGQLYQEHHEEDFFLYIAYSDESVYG

LC3A WT = LC3A WT (UniProt Q9H492); assay: as above
LC3C WT = LC3C WT (UniProt Q9BXW4); assay: as above
Chain of LC3C WT (Q9BXW4 1-126): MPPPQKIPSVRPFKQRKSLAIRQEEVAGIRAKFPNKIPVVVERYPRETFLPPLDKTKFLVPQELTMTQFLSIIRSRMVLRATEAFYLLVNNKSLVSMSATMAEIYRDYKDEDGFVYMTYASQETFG

GABARAPL2 WT = GABARAPL2 WT (UniProt P60520); assay: as above
Chain of GABARAPL2 WT (P60520 whole entry): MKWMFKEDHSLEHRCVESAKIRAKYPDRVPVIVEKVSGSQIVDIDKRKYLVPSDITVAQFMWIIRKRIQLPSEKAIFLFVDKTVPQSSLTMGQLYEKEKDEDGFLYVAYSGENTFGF

GABARAPL1 WT = GABARAPL1 WT (UniProt Q9H0R8); assay: as above
Chain of GABARAPL1 WT (Q9H0R8 whole entry): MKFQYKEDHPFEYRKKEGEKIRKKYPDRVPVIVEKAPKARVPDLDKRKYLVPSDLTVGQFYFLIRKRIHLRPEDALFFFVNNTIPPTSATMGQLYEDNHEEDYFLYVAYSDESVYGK

- Kd [1]: 0.57 µM
Substance: Atg40^237–252 peptide (from UniProt Q99325 237-252)

- Kd [2]: 8.2 µM
- stoichiometry N [2]: 1.28 site
Substance: FAM134B444-470 E456A E462A peptide

- Kd [3]: 2.06 µM
- stoichiometry N [3]: 0.99 site
Substance: FAM134B444-470 L458A peptide

- Kd (LC3A WT): 0.21 µM
- stoichiometry N (LC3A WT): 0.7 site
- Kd (LC3C WT): 1.11 µM
- stoichiometry N (LC3C WT): 0.74 site
- Kd (GABARAPL2 WT): 0.3 µM
- stoichiometry N (GABARAPL2 WT): 0.89 site
- Kd [2]: 0.62 µM
- stoichiometry N [2]: 1.08 site
- Kd (GABARAPL1 WT): 0.12 µM
- stoichiometry N (GABARAPL1 WT): 0.97 site
Substance: FAM134B444-470 WT peptide
